From patent publication US20190275125A1 (H LUNDBECK A S, published 2019)

Columns and labels:
Assay in all cases: MSD inhibition assay, abeta 1-28 coated plates
Met-var24 = target: Met-var24
Var24 = target: Var24
[1] = target: T1, abeta 1-12 trimer construct (UniProt P05067 672-683; P05067 672-683; P05067 672-683)
T1 construct: range 1-12
T1 sequence (peptide): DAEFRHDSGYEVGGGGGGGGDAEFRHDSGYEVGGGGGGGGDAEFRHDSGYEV

Measured: binding result

B1: Biosimilar (BS) bapineuzumab (antibody, V domains shown)
VH: EVQLVESGGGLVQPGGSLRLSCAGSGFTFSNYGMSWVRQAPGKGLEWVASIRSGGGRTYYSDNVKGRFTISRENAKNSLYLQMNSLRAEDTAVYYCVRYDHYSGSSDYWGQGTLVTVSS
VL: DVVMTQSPLSLPVTLGQPASISCKSSQSLLDSDGKTYLNWLQQRPGQSPRRLIYLVSKLDSGVPDRFSGSGSGTDFTLKISRVEAEDVGVYYCWQGTHFPRTFGGGTKVEIKR
binds: all assays above
